Earlier results in PMC5992718.

Molecular target: PD-L1 (Homo sapiens) (UniProt Q9NZQ7)
Sequence of UniProt Q9NZQ7 (Q9NZQ7 19-238): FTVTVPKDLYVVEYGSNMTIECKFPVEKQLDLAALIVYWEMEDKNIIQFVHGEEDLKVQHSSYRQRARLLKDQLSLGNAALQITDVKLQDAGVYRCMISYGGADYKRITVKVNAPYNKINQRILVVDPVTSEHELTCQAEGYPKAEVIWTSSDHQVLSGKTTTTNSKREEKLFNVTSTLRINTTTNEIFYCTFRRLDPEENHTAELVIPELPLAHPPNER

- Kd: 29.8 µM
Substance: PD-1 (from UniProt Q02242)
